Test results reported in FireProtDB (doi:10.1016/j.jmb.2011.02.053).

B1: Guanyl-specific ribonuclease Sa, P05798 (parent)
chain: DVSGTVCLSALPPEATDTLNLIASDGPFPYSQDGVVFQNRESVLPTQSYGYYHEYTVITPGARTRGTRRIITGEATQEDYYTGDHYATFSLIDQTC

Variants of: B1
Details: Kitasatospora aureofaciens; pH 7; Thermal; Fluorescence; MOPS 30mM; transition: 2; reversible: yes; structure 1RGG; whole UniProt chain shown

Variant	change of melting temperature, mutant - wild type (higher = more stable) [°C]	ddG of mutation (higher = less stable) [kcal/mol]	unfolding enthalpy (calorimetric) [kcal/mol]
I92V	-3.9	1	84
I22V	-5.7	1.48	74
L21A	-1.6	0.41	85
L91A	-3.2	0.84	91
I70V	-3.4	0.94	87
L19A	-13.8	3.65	73
I58V	0.11	0	89
L8A	-5	1.34	89
I71V	-0.3	0.13	80
